# Laboratory results: patent US8916370B2, “Isoprene synthase variants for improved microbial production of isoprene” (Danisco US Inc., priority 2008, dated 2014)
# What was measured:
# [1] = test system: E. coli strain MCM531 (BL21 PL.2-mKKDyI); experiment: Growth inhibition of MCM531 by mevalonic acid; assay type: cell-based, Escherichia coli; conditions: TM3 medium with 1% glucose and yeast extract; 0, 1, 5, 10, 15 or 20 mM MVA; OD600, quadruplicate
# Protocol: An overnight culture of MCM531 (see strain description) was back-diluted to an OD600 of 0.05 (this corresponds to an OD600 of approx 0.005 in a 96-well plate reader) (SpectraMax M2, Molecular Devices). The diluted culture was then aliquotted into separate wells in a 96-well deep-well plate into standard TM3 medium (13.6 g K2PO4, 13.6 g KH2PO4, 2.0 g MgSO4*7H2O) supplemented with 1% glucose and 0.8 g/L Biospringer yeast extract (1% Yeast extract final)) with 0, 1, 5, 10, 15 or 20 mM MVA added. […] Each MVA concentration was assayed in quadruplicate, error bars were negligible.
# [2] = biological target: P. alba isoprene synthase (IspS), full length, C-terminally TEV and His-tagged (MD09-165), FL(+)TEV, SEQ ID NO:134 (Populus alba, UniProt Q50L36); conditions: DMAPP 0.625 to 40 mM, 50 mM MgCl2, pH 8, 30° C., 15 min; ± S.D., triplicate
# Protocol: (§1) The relative specific activity was determined and the kinetics of “N-terminally truncated” P. alba isoprene synthases were examined compared to “Full length” P. alba isoprene synthases. Four strains expressing four different constructs were used in this analysis: BL21(λDE3) pLysS with P. alba pET24a; MD09-173; MD09-165; and MD09-167 (Strains described above in detail). These strains express “full length” P. alba IspS, “truncated” P. alba IspS (the MEA truncation), “full length” C-terminally TEV and His-tagged P. alba IspS, and “truncated” C-terminally TEV and His-tagged P. alba IspS, respectively. In the experiments described below, “truncated” refers specifically to the MEA variant of P. alba IspS.
# (§2) All strains were inoculated into LB containing 30 mg/L chloramphenicol(Cm) and 50 mg/L kanamycin and grown overnight in 2 mL culture tubes at 37° C. The overnight cultures were diluted 1:100 in 25 mL of LB broth containing 30 mg/L chloramphenicol(Cm) and 50 mg/L kanamycin the following morning and grown at 37° C. until OD˜0.5. Each strain was grown in triplicate. The cultures were then induced with 400 uM IPTG and incubated at 30° C. for 4 hours.
# [3] = biological target: P. alba isoprene synthase (IspS), truncated MEA variant, C-terminally TEV and His-tagged (MD09-167), MEA(+)TEV, SEQ ID NO:132 (Populus alba, UniProt Q50L36); conditions: DMAPP 0.625 to 40 mM, 50 mM MgCl2, pH 8, 30° C., 15 min; ± S.D., triplicate (2.5 mM DMAPP in duplicate)
# Protocol: as §1, §2
# [4] = substrate: CC(C)=CCOP(=O)(O)OP(=O)(O)O; experiment: purified protein, by the assay type; conditions: other: DMAPP 0.625 to 40 mM, 50 mM MgCl2, pH 8, 30° C., 15 min, ± S.D., triplicate
# P. alba isoprene synthase (IspS), full length, C-terminally TEV and His-tagged (MD09-165), FL(+)TEV, SEQ ID NO:134, sequence (Q50L36 with tags, fused parts or gaps): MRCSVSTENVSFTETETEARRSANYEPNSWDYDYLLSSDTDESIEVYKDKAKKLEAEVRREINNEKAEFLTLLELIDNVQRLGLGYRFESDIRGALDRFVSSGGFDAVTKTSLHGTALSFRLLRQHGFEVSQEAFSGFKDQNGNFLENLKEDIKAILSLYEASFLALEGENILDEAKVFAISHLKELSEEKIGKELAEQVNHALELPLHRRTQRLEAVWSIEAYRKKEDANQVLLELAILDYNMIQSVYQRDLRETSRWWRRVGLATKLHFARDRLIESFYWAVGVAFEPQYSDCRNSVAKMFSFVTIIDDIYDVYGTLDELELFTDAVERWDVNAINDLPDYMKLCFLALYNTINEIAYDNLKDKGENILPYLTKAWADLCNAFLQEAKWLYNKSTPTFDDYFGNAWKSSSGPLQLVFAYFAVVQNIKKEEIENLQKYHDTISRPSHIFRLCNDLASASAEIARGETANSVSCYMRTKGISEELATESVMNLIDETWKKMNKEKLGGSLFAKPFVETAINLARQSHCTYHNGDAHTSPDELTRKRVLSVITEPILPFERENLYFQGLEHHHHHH
# P. alba isoprene synthase (IspS), truncated MEA variant, C-terminally TEV and His-tagged (MD09-167), MEA(+)TEV, SEQ ID NO:132, sequence (Q50L36 with tags, fused parts or gaps): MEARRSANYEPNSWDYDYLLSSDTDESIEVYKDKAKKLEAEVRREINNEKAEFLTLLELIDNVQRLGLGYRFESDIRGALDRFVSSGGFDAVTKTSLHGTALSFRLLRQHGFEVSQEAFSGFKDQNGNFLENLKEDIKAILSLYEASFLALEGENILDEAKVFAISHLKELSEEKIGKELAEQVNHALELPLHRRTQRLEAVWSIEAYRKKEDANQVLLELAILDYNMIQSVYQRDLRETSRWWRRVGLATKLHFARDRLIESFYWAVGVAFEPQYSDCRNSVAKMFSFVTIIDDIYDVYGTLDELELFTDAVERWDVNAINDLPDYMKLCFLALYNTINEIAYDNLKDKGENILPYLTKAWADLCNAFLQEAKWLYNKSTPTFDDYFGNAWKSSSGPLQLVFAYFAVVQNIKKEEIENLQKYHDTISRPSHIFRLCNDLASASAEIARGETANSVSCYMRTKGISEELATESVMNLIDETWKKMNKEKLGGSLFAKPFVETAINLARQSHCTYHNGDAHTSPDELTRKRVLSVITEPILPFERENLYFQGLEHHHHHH
KM [2] [µM],KM [3] [µM],Molecule,concentration at which growth was severely inhibited [1] [mM],Km [4] [µM],kcat [4] [s⁻¹]
–,–,"C[C@@](O)(CCO)CC(=O)O [MVA, Mevalonic Acid]",≥ 5,–,–
2400 ± 500,2000 ± 1000,"CC(C)=CCOP(=O)(O)OP(=O)(O)O [DMAPP, 3,3-dimethylallyl pyrophosphate]",–,–,–
–,–,"P. alba isoprene synthase (IspS), N-terminally truncated MEA variant, untagged (MD09-173, pDu39), SEQ ID NO:122 (Populus alba) (protein) MEARRSANYEPNSWDYDYLLSSDTDESIEVYKDKAKKLEAEVRREINNEKAEFLTLLELIDNVQRLGLGYRFESDIRGALDRFVSSGGFDAVTKTSLHGTALSFRLLRQHGFEVSQEAFSGFKDQNGNFLENLKEDIKAILSLYEASFLALEGENILDEAKVFAISHLKELSEEKIGKELAEQVNHALELPLHRRTQRLEAVWSIEAYRKKEDANQVLLELAILDYNMIQSVYQRDLRETSRWWRRVGLATKLHFARDRLIESFYWAVGVAFEPQYSDCRNSVAKMFSFVTIIDDIYDVYGTLDELELFTDAVERWDVNAINDLPDYMKLCFLALYNTINEIAYDNLKDKGENILPYLTKAWADLCNAFLQEAKWLYNKSTPTFDDYFGNAWKSSSGPLQLVFAYFAVVQNIKKEEIENLQKYHDTISRPSHIFRLCNDLASASAEIARGETANSVSCYMRTKGISEELATESVMNLIDETWKKMNKEKLGGSLFAKPFVETAINLARQSHCTYHNGDAHTSPDELTRKRVLSVITEPILPFER",–,1800 ± 200,1.5
–,–,"P. alba isoprene synthase (IspS), full length, untagged, SEQ ID NO:120 (Populus alba) (protein) MRCSVSTENVSFTETETEARRSANYEPNSWDYDYLLSSDTDESIEVYKDKAKKLEAEVRREINNEKAEFLTLLELIDNVQRLGLGYRFESDIRGALDRFVSSGGFDAVTKTSLHGTALSFRLLRQHGFEVSQEAFSGFKDQNGNFLENLKEDIKAILSLYEASFLALEGENILDEAKVFAISHLKELSEEKIGKELAEQVNHALELPLHRRTQRLEAVWSIEAYRKKEDANQVLLELAILDYNMIQSVYQRDLRETSRWWRRVGLATKLHFARDRLIESFYWAVGVAFEPQYSDCRNSVAKMFSFVTIIDDIYDVYGTLDELELFTDAVERWDVNAINDLPDYMKLCFLALYNTINEIAYDNLKDKGENILPYLTKAWADLCNAFLQEAKWLYNKSTPTFDDYFGNAWKSSSGPLQLVFAYFAVVQNIKKEEIENLQKYHDTISRPSHIFRLCNDLASASAEIARGETANSVSCYMRTKGISEELATESVMNLIDETWKKMNKEKLGGSLFAKPFVETAINLARQSHCTYHNGDAHTSPDELTRKRVLSVITEPILPFER",–,2400 ± 300,0.72
